Measured values as given in US20260077071A1, “Targeted Delivery of Theranostic Agents” (Peter MacCallum Cancer Institute, priority 2022, published 2026).
Square brackets hold non-standard residues; d marks the D form. Peptide text beside a SMILES is read from it. * marks the point of attachment. DOTA = O=C(O)CN1CCN(CC(=O)O)CCN(CC(=O)*)CCN(CC(=O)O)CC1; NMe1Nal = CN[C@@H](Cc1cccc2ccccc12)C(=O)O; NMeNle = CCCC[C@H](NC)C(=O)O; Sar = CNCC(=O)O

How the values were obtained:
[1] = LogD7.4 determination (PBS pH 7.4 / n-octanol); format: physicochemical; details: PBS/Octanol mix, n = 5
Procedure: The distribution coefficients (LogD7.4) of radiolabelled compounds [^68Ga]Ga-1-4, and [^68Ga]Ga-Cmp ex-2 were assayed by measuring radioactivity distribution in the aqueous phase (phosphate buffer pH7.4) and the organic phase (n-octanol). To determine the distribution coefficient (LogD), Ga-68 radiolabelled compounds were diluted to 20 pmol/mL in PBS (pH 7.4) and an equal volume of n-octanol was added. The mixture was vortexed vigorously for 10 cycles of 1 min at room temperature before being centrifuged for 6 min to separate the two phases. Equal volumes from each phase were aliquoted into individual counting tubes and analysed for 1 min using the Perkin Elmer 2480 Wizard2™ gamma counter (PerkinElmer, Massachusetts, USA). The distribution coefficient was calculated using the following equation [formula]

in vitro = in vitro ADME, mouse
Procedure: Drug detoxification, drug metabolism and metabolic stability are important determinants of the efficacy of theranostic candidates in clinical settings. To assess metabolic stability, radiolabelled Compounds [^68Ga]Ga-1-4 and comparative example-2 ([^68Ga]Ga-Cmp ex-2) were challenged by incubation in either human serum, mouse liver or kidney homogenates and HEPES buffer as a negative control. Duplicate samples (750-900 pmol/mL) were incubated at 37° C. with pooled human serum, 15% mouse kidney homogenate, 30% mouse liver homogenate or 20 mM HEPES, pH 7.3 (control). Human blood was collected and serum prepared using SSTII advance vacutainer tubes according to the manufacturer's instructions (Becton Dickinson, New Jersey, USA). Mouse kidney and liver homogenates were prepared by washing the tissues in ice-cold HEPES buffer, pH 7.3 and placing them in pre-chilled tubes containing HEPES buffer and 2.38 mm metal beads (Mo-Bio Laboratories, Hilden, Germany). Tissues were homogenised using the PowerLyzer24 homogeniser (Qiagen, Hilden, Germany) according to the manufacturer's instructions. Ga-68 radiolabelled peptides were incubated with the various lysates at 37° C. and samples were collected at 15, 30, 60 and 90 min. Reactions were terminated by addition of an equal volume of acetonitrile and centrifugation for 2 min at 15,000 rpm. Supernatants were diluted in water before being analysed by HPLC using a Kinetex C18 XB column (5 μm 4.6×150 mm), eluted at 1.5 mL/min of gradient 20-60% MeCN in water containing 0.1% formic acid over 7 min.

A431 CCK2R cells = system: A431 CCK2R cells; set-up: species or system BALB/c nu/nu mice; details: mouse, in vivo, iv
Procedure: The diagnostic efficacy of Compounds [^68Ga]Ga-1-4 and [^68Ga]Ga-Cmp ex-2 was assessed using static small animal PET imaging and quantifying biodistribution studies. Female BALB/c nu/nu mice (age 8-10 weeks) were inoculated subcutaneously on the right flank with 3×10^6 A431 CCK2R cells in PBS:Matrigel (1:1). Mice were weighed and tumours measured twice weekly using electronic callipers with tumour volume (mm^3) calculated as length×width×height×π/6. Mice were assigned to imaging and/or biodistribution groups (tumour volumes: 50-500 mm^3). The respective Ga-68 labelled tracer (4-5 MBq, 100 μL, 13.7-14.2 pmoles) was mixed with vehicle solution (75 μL, DMSO:Tween 80:water, 2:2:6 v/v/v) and then administered to six mice intravenously via tail vein injection. Three mice were euthanised for biodistribution 1 h post injection and selected tissues were excised, weighed and counted using a Capintec (Captus 4000e) gamma counter. Three mice were anaesthetised using 1.5% isoflurane and imaged at 1 and 2 h with a G8 Small Animal PET/CT scanner (Perkin Elmer/Sofie Biosciences). A 10 min static PET scan was acquired, followed immediately by a CT scan. PET images were acquired using the G8 acquisition engine software and reconstructed using a 3D maximal likelihood and expectation maximization (ML-EM) algorithm. PET images were analysed using VivoQuant software, version 3.0 (inviCRO Imaging Services and Software) to quantify maximum standardised uptake value in regions of interest (SUVmax). After imaging the 2 h time point the mice were harvested for biodistribution analysis as above.
For blocking CCK2R binding a solution of N-[(3R)-2,3-Dihydro-1-[2-(2-methylphenyl)-2-oxoethyl]-2-oxo-5-phenyl-1H-1,4-benzodiazepin-3-yl]-N′-(3-methylphenyl)-urea (YM022; Sigma Aldrich) was used. […]

Row | Structure (SMILES) | LogD7.4 [1] | metabolism in kidney homogenates (in vitro) | metabolism in liver homogenates (in vitro) | tumour to kidney ratio (A431 CCK2R cells) | renal / kidney uptake (A431 CCK2R cells) | tumour uptake (A431 CCK2R cells)
1 | CCCC[C@@H](C(=O)N[C@@H](CC(=O)O)C(=O)N(C)[C@@H](Cc1cccc2ccccc12)C(N)=O)N(C)C(=O)[C@H](Cc1c[nH]c2ccccc12)NC(=O)CN(C)C(=O)[C@H](Cc1ccc(O)cc1)NC(=O)[C@H](C)NC(=O)[C@@H](CCC(=O)O)NC(=O)[C@@H](CCC(=O)O)NC(=O)[C@@H](CCC(=O)O)NC(=O)[C@@H](C)NC(=O)[C@@H](CCC(=O)O)NC(=O)[C@@H](CCC(=O)O)NC(=O)CN1CCN(CC(=O)O)CCN(CC(=O)O)CCN(CC(=O)O)CC1 [[^68Ga]Ga-4, metal not drawn] ({DOTA}-[dE][dE][dA][dE][dE][dE]AY[Sar]W[NMeNle]D[NMe1Nal]-NH2) | −2.59 ± 0.02 | no observable metabolites detected | no observable metabolites detected | best tumour to kidney ratio | – | –
2 | CCCC[C@@H](C(=O)N[C@@H](CC(=O)O)C(=O)N(C)[C@@H](Cc1cccc2ccccc12)C(N)=O)N(C)C(=O)[C@H](Cc1c[nH]c2ccccc12)NC(=O)CN(C)C(=O)[C@H](Cc1ccc(O)cc1)NC(=O)[C@H](C)NC(=O)[C@@H](CCC(=O)O)NC(=O)[C@@H](CCC(=O)O)NC(=O)[C@@H](CCC(=O)O)NC(=O)[C@@H](CCC(=O)O)NC(=O)[C@@H](CCC(=O)O)NC(=O)[C@@H](CCC(=O)O)NC(=O)CN1CCN(CC(=O)O)CCN(CC(=O)O)CCN(CC(=O)O)CC1 [[^68Ga]Ga-Cmp ex-2, metal not drawn, reference compound] ({DOTA}-[dE][dE][dE][dE][dE][dE]AY[Sar]W[NMeNle]D[NMe1Nal]-NH2) | −2.97 ± 0.13 | no observable metabolites detected | no observable metabolites detected | – | highest renal uptake | best tumour uptake
